Consider 6 molecules from US20210155676A1.

B1: PGT121.42 hIgG1/hLambda (antibody)
heavy: QMQLQESGPGLVKPSETLSLTCSVSGASISDSYWSWIRRSPGKGLEWIGYVHKSGDTNYNPSLKSRVHLSLDTSKNQVSLSLSSVTAADSGKYYCARTLHGRRIYGIVAFNEWFTYFYMDVWGKGTQVTVSSASTKGPSVFPLAPSSKSTSGGTAALGCLVKDYFPEPVTVSWNSGALTSGVHTFPAVLQSSGLYSLSSVVTVPSSSLGTQTYICNVNHKPSNTKVDKKVEPKSCDKTHTCPPCPAPELLAGPDVFLFPPKPKDTLMISRTPEVTCVVVDVSHEDPEVKFNWYVDGVEVHNAKTKPREEQYNSTYRVVSVLTVLHQDWLNGKEYKCKVSNKALPLPEEKTISKAKGQPREPQVYTLPPSREEMTKNQVSLTCLVKGFYPSDIAVEWESNGQPENNYKTTPPVLDSDGSFFLYSKLTVDKSRWQQGNVFSCSVLHEALHSHYTQKSLSLSPGK
light: not shown
B2: PGT121.56 hIgG1/hLambda (antibody)
heavy: QMQLQESGPGLVKPSETLSLTCSVSGASISDSYWSWIRRSPGKGLEWIGYVHKSGDTNYSPSLKSRVNLSLDTSKNQVSLSLVAATAADSGKYYCARTLHGRRIYGIVAFNEWFTYFYMDVWGNGTQVTVSSASTKGPSVFPLAPSSKSTSGGTAALGCLVKDYFPEPVTVSWNSGALTSGVHTFPAVLQSSGLYSLSSVVTVPSSSLGTQTYICNVNHKPSNTKVDKKVEPKSCDKTHTCPPCPAPELLAGPDVFLFPPKPKDTLMISRTPEVTCVVVDVSHEDPEVKFNWYVDGVEVHNAKTKPREEQYNSTYRVVSVLTVLHQDWLNGKEYKCKVSNKALPLPEEKTISKAKGQPREPQVYTLPPSREEMTKNQVSLTCLVKGFYPSDIAVEWESNGQPENNYKTTPPVLDSDGSFFLYSKLTVDKSRWQQGNVFSCSVLHEALHSHYTQKSLSLSPGK
light: not shown
B3: PGT121.60 hIgG1/hLambda (antibody)
heavy: QMQLQESGPGLVKPSETLSLTCSVSGASISDSYWSWIRRSPGKGLEWIGYVHKSGDTNYNPSLKSRVHLSLDTSKNQVSLSLTGVTAADSGKYYCARTLHGRRIYGIVAFNEWFTYFYMDVWGTGTQVTVSSASTKGPSVFPLAPSSKSTSGGTAALGCLVKDYFPEPVTVSWNSGALTSGVHTFPAVLQSSGLYSLSSVVTVPSSSLGTQTYICNVNHKPSNTKVDKKVEPKSCDKTHTCPPCPAPELLAGPDVFLFPPKPKDTLMISRTPEVTCVVVDVSHEDPEVKFNWYVDGVEVHNAKTKPREEQYNSTYRVVSVLTVLHQDWLNGKEYKCKVSNKALPLPEEKTISKAKGQPREPQVYTLPPSREEMTKNQVSLTCLVKGFYPSDIAVEWESNGQPENNYKTTPPVLDSDGSFFLYSKLTVDKSRWQQGNVFSCSVLHEALHSHYTQKSLSLSPGK
light: not shown
B4: PGT121.61 hIgG1/hLambda (antibody)
heavy: QMQLQESGPGLVKPSETLSLTCSVSGASISDSYWSWIRRSPGKGLEWIGYVHKSGDTNYNPSLKSRVHLSLDTSKNQVSLSLTGVTAADSGKYYCARTLHGRRIYGIVAFNEWFTYFYMDVWGTGTQVTVSSASTKGPSVFPLAPSSKSTSGGTAALGCLVKDYFPEPVTVSWNSGALTSGVHTFPAVLQSSGLYSLSSVVTVPSSSLGTQTYICNVNHKPSNTKVDKKVEPKSCDKTHTCPPCPAPELLAGPDVFLFPPKPKDTLMISRTPEVTCVVVDVSHEDPEVKFNWYVDGVEVHNAKTKPREEQYNSTYRVVSVLTVLHQDWLNGKEYKCKVSNKALPLPEEKTISKAKGQPREPQVYTLPPSREEMTKNQVSLTCLVKGFYPSDIAVEWESNGQPENNYKTTPPVLDSDGSFFLYSKLTVDKSRWQQGNVFSCSVLHEALHSHYTQKSLSLSPGK
light: SDISVAPGETARISCGEKSLGSRAVQWYQHRAGQAPSLIIYNNQDRPSGIPERFSGSPDSRPGTTATLTITSVEAGDEADYYCHIWDSRVPTKWVFGGGTKLTVLGQPKAAPSVTLFPPSSEELQANKATLVCLISDFYPGAVTVAWKADSSPVKAGVETTTPSKQSNNKYAASSYLSLTPEQWKSHRSYSCQVTHEGSTVEKTVAPTECS
B5: PGT121.65 hIgG1/hLambda (antibody)
heavy: QLQLQESGPGLVKPSETLSLTCSVSGASISDAYWSWIRRSPGKGLEWIGYVHKSGDTNYNPSLKSRVHLSLDTSKNQVSLSLTGVTAADSGKYYCARALHGRRIYGIVAFNEWFTYFYMDVWGTGTQVTVSSASTKGPSVFPLAPSSKSTSGGTAALGCLVKDYFPEPVTVSWNSGALTSGVHTFPAVLQSSGLYSLSSVVTVPSSSLGTQTYICNVNHKPSNTKVDKKVEPKSCDKTHTCPPCPAPELLAGPDVFLFPPKPKDTLMISRTPEVTCVVVDVSHEDPEVKFNWYVDGVEVHNAKTKPREEQYNSTYRVVSVLTVLHQDWLNGKEYKCKVSNKALPLPEEKTISKAKGQPREPQVYTLPPSREEMTKNQVSLTCLVKGFYPSDIAVEWESNGQPENNYKTTPPVLDSDGSFFLYSKLTVDKSRWQQGNVFSCSVLHEALHSHYTQKSLSLSPGK
light: SDISVAPGETARISCGEKSLGSRAVQWYQHRAGQAPSLIIYNNQDRPSGIPERFSGSPDSRPGTTATLTITSVEAGDEADYYCHIWDSRVPTKWVFGGGTKLTVLGQPKAAPSVTLFPPSSEELQANKATLVCLISDFYPGAVTVAWKADSSPVKAGVETTTPSKQSNNKYAASSYLSLTPEQWKSHRSYSCQVTHEGSTVEKTVAPTECS
B6: PGT121.64 hIgG1/hLambda (antibody)
heavy: QLQLQESGPGLVKPSETLSLTCSVSGASISDAYWSWIRRSPGKGLEWIGYVHKSGDTNYNPSLKSRVHLSLDTSKNQVSLSLTGVTAADSGKYYCARALHGRRIYGIVAFNEWFTYFYMDVWGTGTQVTVSSASTKGPSVFPLAPSSKSTSGGTAALGCLVKDYFPEPVTVSWNSGALTSGVHTFPAVLQSSGLYSLSSVVTVPSSSLGTQTYICNVNHKPSNTKVDKKVEPKSCDKTHTCPPCPAPELLAGPDVFLFPPKPKDTLMISRTPEVTCVVVDVSHEDPEVKFNWYVDGVEVHNAKTKPREEQYNSTYRVVSVLTVLHQDWLNGKEYKCKVSNKALPLPEEKTISKAKGQPREPQVYTLPPSREEMTKNQVSLTCLVKGFYPSDIAVEWESNGQPENNYKTTPPVLDSDGSFFLYSKLTVDKSRWQQGNVFSCSVLHEALHSHYTQKSLSLSPGK
light: not shown

For the test, the target named is Env of 92 subtype B viruses. In words: cell-based or functional assay.
Take B1: the PGT121 IC50/Variant IC50 turned out to be 1.2 fold, the neutralization Coverage (%) worked out at 63% and the neutralization Median IC95 came out at 0.277 µg/mL.

Molecule B2 came in with a neutralization Coverage (%) of 62% and a neutralization Median IC95 of 0.265 µg/mL.

Molecule B3 displayed a PGT121 IC50/Variant IC50 of 1.9 fold, a neutralization Coverage (%) of 59.8% and a neutralization Median IC95 of 0.177 µg/mL.

As for B4, the PGT121 IC50/Variant IC50 turned out to be 1 fold, the neutralization Coverage (%) was found to be 58.7% and the neutralization Median IC95 was 0.327 µg/mL.

As to B5, the PGT121 IC50/Variant IC50 worked out at 2 fold, the neutralization Coverage (%) was 59.8% and the neutralization Median IC95 is 0.165 µg/mL.

In turn, B6 registered a PGT121 IC50/Variant IC50 of 2.6 fold, a neutralization Coverage (%) of 59.8% and a neutralization Median IC95 of 0.129 µg/mL.
